Source: patent US20200216495A1 (ADRX, published 2020)
Where “and” joins values, the source holds several entries; their conditions need not be identical. Equal values may be shown once. Square brackets hold non-standard residues; d marks the D form. Ends that are not written are not given here. dCha = N[C@H](CC1CCCCC1)C(=O)O; dNle = CCCC[C@@H](N)C(=O)O; Tam = not defined here

T1: Tau40 P301L protein (human)
T1 sequence: WIKIRR

T2: Ac-VQIINK-NH2 (SEQ ID NO: 23)
T2 sequence (peptide, N-terminal acetyl (Ac); C-terminal amide (NH2)): RLKIRW


Molecular target: Tau40 P301L protein (human)
Experiment: cell-based or functional assay

Q: How did the “IC50, Tau40 assay-Modified peptides (ThT)” value turn out when RRRRRRRRRGGSGG[dR][dL][dK][dV][dR][dW] [RRRRRRRRR-GGSGG-rlkvrw] was run?
A: The value was 6.07 µM.

Q: Tam-RRRRRRRRRGGSGG[dR][dL][dK][dV][dR][dW] (reading uncertain; also: printed as Tam-RRRRRRRRR-GGSGG-rlkvrw) [Tam-RRRRRRRRR-GGSGG-rlkvrw] was tested. Which “IC50, Tau40 assay-Modified peptides (ThT)” value did it give?
A: Its value is 20.1 µM.

Q: Tam-YGRKKRRQRRRGGSGG[dR][dL][dK][dV][dR][dW] (reading uncertain) [Tam-[…]-GGSGG-rlkvrw] was tested. Which “IC50, Tau40 assay-Modified peptides (ThT)” value did it give?
A: Its value is 6.6 µM.

Molecular target: Tau40 P301L protein (human)
Experiment: cell-based or functional assay
Remark: another data set of the same source

Q: [dW][dK][dV][dW]G[dK][dV][dW] (not fully specified (residue 5); printed as wkvwgkvw) [wkvwgkvw] was tested. Which “IC50, Tau40 assay (ThT)” value did it give?
A: Its value is 10.4 µM and 10.6 µM.

Q: Which “IC50, Tau40 assay (ThT)” value does the source give for [dW][dD][dL][dD][dV][dR][dW] [wdldvrw] here?
A: The value was 14 µM.

Q: [dW][dR][dH][dK][dH][dR][dW] [wrhkhrw] was tested. Which “IC50, Tau40 assay (ThT)” value did it give?
A: The value was 19.2 µM.

Q: With [dL][dK][dA][dR][dI][dH][dY][dH] [lkarihyh] as the binder, how does the “IC50, Tau40 assay (ThT)” value read?
A: The value was 10.4 µM.

Q: [dW][dE][dL][dK][dV][dE][dW] [welkvew] was tested. Which “IC50, Tau40 assay (ThT)” value did it give?
A: Its value is 10 µM.

Q: [dF][dE][dL][dE][dI][dE][dW][dH] [feleiewh] was tested. Which “IC50, Tau40 assay (ThT)” value did it give?
A: The value was 14.3 µM and 19.5 µM.

Q: With [dF][dK][dI][dE][dI][dE][dY][dH] [fkieieyh] as the binder, how does the “IC50, Tau40 assay (ThT)” value read?
A: Its value is 10.3 µM.

Q: With [dW][dK][dV][dP][dV][dR][dY][dW] [wkvpvryw] as the binder, how does the “IC50, Tau40 assay (ThT)” value read?
A: Its value is 19 µM and 19.8 µM.

Q: Which “IC50, Tau40 assay (ThT)” value does the source give for [dL][dE][dF][dE][dL][dK][dY][dW] [lefelkyw] here?
A: Its value is 19.7 µM.

Q: Which “IC50, Tau40 assay (ThT)” value does the source give for [dW][dF][dL][dR][dI][dH][dW] [wflrihw] here?
A: Its value is 8.71 µM.

Q: Which “IC50, Tau40 assay (ThT)” value does the source give for [dA][dR][dA][dR][dI][dH][dW] [ararihw] here?
A: Its value is 12.6 µM.

Q: With [dW][dR][dT][dK][dT][dR][dW] [wrtktrw] as the binder, how does the “IC50, Tau40 assay (ThT)” value read?
A: Its value is 8.93 µM.

Q: For [dW][dR][dE][dK][dV][dR][dW][dW] [wrekvrww], which “IC50, Tau40 assay (ThT)” value is on record?
A: The value was 19.3 µM.

Q: For [dW][dR][dL][dK][dV][dR] [wrlkvr], which “IC50, Tau40 assay (ThT)” value is on record?
A: Its value is 18.5 µM.

Q: Which “IC50, Tau40 assay (ThT)” value does the source give for [dI][dH][dY][dH][dL][dK][dI][dR] [ihyhlkir] here?
A: Its value is 9.7 µM.

Q: Which “IC50, Tau40 assay (ThT)” value does the source give for [dW][dR][dL][dR][dI][dH][dE] [wrlrihe] here?
A: Its value is 10 µM.

Q: How did the “IC50, Tau40 assay (ThT)” value turn out when [dW][dK][dL][dK][dL][dW][dW][dW] [wklklwww] was run?
A: The value was 9.91 µM and 10.8 µM.

Q: With [dW][dE][dV][dQ][dV][dE][dW] [wevqvew] as the binder, how does the “IC50, Tau40 assay (ThT)” value read?
A: Its value is 11.7 µM.

Q: How did the “IC50, Tau40 assay (ThT)” value turn out when [dA][dR][dL][dK][dA][dR][dW] [arlkarw] was run?
A: The value was 11.2 µM.

Q: How did the “IC50, Tau40 assay (ThT)” value turn out when [dW][dR][dL][dK][dV] [wrlkv] was run?
A: The value was 15.1 µM.

Q: With [dI][dL][dK][dI][dV][dW] [ilkivw] as the binder, how does the “IC50, Tau40 assay (ThT)” value read?
A: Its value is 9.32 µM.

Q: How did the “IC50, Tau40 assay (ThT)” value turn out when [dT][dI][dK][dL][dV][dW] [tiklvw] was run?
A: The value was 13.7 µM and 14.3 µM.

Q: With [dL][dK][dR][dR][dI][dH][dY][dH] [lkrrihyh] as the binder, how does the “IC50, Tau40 assay (ThT)” value read?
A: The value was 15.4 µM.

Q: How did the “IC50, Tau40 assay (ThT)” value turn out when [dL][dK][dI][dA][dI][dH][dY][dH] [lkiaihyh] was run?
A: Its value is 19.5 µM.

Q: How did the “IC50, Tau40 assay (ThT)” value turn out when [dL][dK][dT][dR][dI][dH][dY] [lktrihy] was run?
A: The value was 12.5 µM.

Q: Which “IC50, Tau40 assay (ThT)” value does the source give for [dE][dR][dL][dR][dI][dH][dW] [erlrihw] here?
A: The value was 9.9 µM.

Q: For [dF][dR][dL][dK][dI][dR][dW] [frlkirw], which “IC50, Tau40 assay (ThT)” value is on record?
A: The value was 11.7 µM and 12.2 µM.

Q: [dE][dL][dK][dI][dV][dW] [elkivw] was tested. Which “IC50, Tau40 assay (ThT)” value did it give?
A: Its value is 16 µM and 16.6 µM.

Q: For [dW][dR][dA][dK][dA][dR][dW] [wrakarw], which “IC50, Tau40 assay (ThT)” value is on record?
A: The value was 12.7 µM.

Molecular target: T1, Tau40 P301L protein (human)
Experiment: cell-based or functional assay

Q: [dNle][dK][dI][dR][dI][dH][dY] [ukirihy (PEPTIDE ID NO: 203)] was tested. Which IC50, Tau40 assay (ThT) did it give?
A: Its IC50, Tau40 assay (ThT) is 0.73 µM.

Q: How did the IC50, Tau40 assay (ThT) turn out when [dW][dR][dCha][dK][dV][dR][dW] [wrbkvrw (PEPTIDE ID NO: 286)] was run?
A: Its IC50, Tau40 assay (ThT) is 1.65 µM.

Q: Which IC50, Tau40 assay (ThT) does the source give for [dL][dK][dI][dR][dNle][dH][dY] [lkiruhy (PEPTIDE ID NO: 267)] here?
A: Its IC50, Tau40 assay (ThT) is 1.43 µM.

Q: [dW][dR][dNle][dK][dNle][dR][dW] [wrukurw] was tested. Which IC50, Tau40 assay (ThT) did it give?
A: The IC50, Tau40 assay (ThT) was 7.21 µM.

Q: With [dW][dR][dL][dK][dNle][dR][dW] [wrlkurw (PEPTIDE ID NO: 308)] as the binder, how does the IC50, Tau40 assay (ThT) read?
A: The IC50, Tau40 assay (ThT) was 2.12 µM.

Q: Which IC50, Tau40 assay (ThT) does the source give for [dNle][dR][dL][dK][dV][dR][dW] [urlkvrw (PEPTIDE ID NO: 282)] here?
A: The IC50, Tau40 assay (ThT) was 1.63 µM.

Q: For [dW][dR][dL][dK][dCha][dR][dW] [wrlkbrw (PEPTIDE ID NO: 307)], which IC50, Tau40 assay (ThT) is on record?
A: Its IC50, Tau40 assay (ThT) is 2.11 µM.

Q: [dL][dK][dCha][dR][dI][dH][dY] [lkbrihy (PEPTIDE ID NO: 252)] was tested. Which IC50, Tau40 assay (ThT) did it give?
A: The IC50, Tau40 assay (ThT) was 1.16 µM.

Q: For [dL][dK][dNle][dR][dI][dH][dY] [lkurihy (PEPTIDE ID NO: 279)], which IC50, Tau40 assay (ThT) is on record?
A: The IC50, Tau40 assay (ThT) was 1.59 µM.

Q: How did the IC50, Tau40 assay (ThT) turn out when [dCha][dK][dI][dR][dI][dH][dY] [bkirihy (PEPTIDE ID NO: 249)] was run?
A: Its IC50, Tau40 assay (ThT) is 1.09 µM.

Q: For [dW][dR][dCha][dK][dCha][dR][dW] (not fully specified; printed as wrbkbrw) [wrbkbrw], which IC50, Tau40 assay (ThT) is on record?
A: The IC50, Tau40 assay (ThT) was 9.33 µM.

Q: For [dW][dR][dNle][dK][dV][dR][dW] [wrukvrw (PEPTIDE ID NO: 258)], which IC50, Tau40 assay (ThT) is on record?
A: The IC50, Tau40 assay (ThT) was 1.25 µM.

Q: How did the IC50, Tau40 assay (ThT) turn out when [dCha][dR][dL][dK][dV][dR][dW] [brlkvrw (PEPTIDE ID NO: 293)] was run?
A: Its IC50, Tau40 assay (ThT) is 1.82 µM.

Q: With [dL][dK][dI][dR][dCha][dH][dY] [lkirbhy (PEPTIDE ID NO: 228)] as the binder, how does the IC50, Tau40 assay (ThT) read?
A: Its IC50, Tau40 assay (ThT) is 0.9 µM.

Q: Which IC50, Tau40 assay (ThT) does the source give for [dL][dK][dNle][dR][dNle][dH][dY] [lkuruhy (PEPTIDE ID NO: 287)] here?
A: Its IC50, Tau40 assay (ThT) is 1.65 µM.

Molecular target: T2, Ac-VQIINK-NH2 (SEQ ID NO: 23)
Experiment: cell-based or functional assay

Q: For [dL][dK][dNle][dR][dNle][dH][dY] [lkuruhy], which VQIINK Inhibition IC50 is on record?
A: Its VQIINK Inhibition IC50 is 0.87 µm.

Q: Which VQIINK Inhibition IC50 does the source give for [dW][dR][dCha][dK][dV][dR][dW] (not fully specified; printed as wrbkvrw) [wrbkvrw] here?
A: Its VQIINK Inhibition IC50 is 0.41 µm.

Q: With [dNle][dR][dL][dK][dV][dR][dW] [urlkvrw] as the binder, how does the VQIINK Inhibition IC50 read?
A: The VQIINK Inhibition IC50 was 2.29 µm.

Q: Which VQIINK Inhibition IC50 does the source give for [dCha][dR][dL][dK][dV][dR][dW] (not fully specified; printed as brlkvrw) [brlkvrw] here?
A: Its VQIINK Inhibition IC50 is 2.31 µm.

Q: With [dW][dR][dNle][dK][dNle][dR][dW] [wrukurw] as the binder, how does the VQIINK Inhibition IC50 read?
A: Its VQIINK Inhibition IC50 is 1.73 µm.

Q: [dL][dK][dI][dR][dNle][dH][dY] [lkiruhy] was tested. Which VQIINK Inhibition IC50 did it give?
A: Its VQIINK Inhibition IC50 is 2.07 µm.

Q: For [dW][dR][dNle][dK][dV][dR][dW] [wrukvrw], which VQIINK Inhibition IC50 is on record?
A: The VQIINK Inhibition IC50 was 2.1 µm.

Q: For [dW][dR][dL][dK][dNle][dR][dW] [wrlkurw], which VQIINK Inhibition IC50 is on record?
A: The VQIINK Inhibition IC50 was 1.41 µm.

Q: Which VQIINK Inhibition IC50 does the source give for [dL][dK][dNle][dR][dI][dH][dY] [lkurihy] here?
A: The VQIINK Inhibition IC50 was 1.5 µm.

Q: With [dW][dR][dL][dK][dCha][dR][dW] (not fully specified; printed as wrlkbrw) [wrlkbrw] as the binder, how does the VQIINK Inhibition IC50 read?
A: The VQIINK Inhibition IC50 was 0.35 µm.

Q: How did the VQIINK Inhibition IC50 turn out when [dW][dR][dCha][dK][dCha][dR][dW] (not fully specified; printed as wrbkbrw) [wrbkbrw] was run?
A: Its VQIINK Inhibition IC50 is 0.77 µm.

Q: [dNle][dK][dI][dR][dI][dH][dY] [ukirihy] was tested. Which VQIINK Inhibition IC50 did it give?
A: The VQIINK Inhibition IC50 was 1.12 µm.
